The values below come from paper PMC7666158.

Assay [1] has as its target JNK1-dc20 (JNK1 with the C-terminal 20 residues truncated) (human) (UniProt P45983). Briefly: fluorescence polarisation; competitive: 50 nM CF-evJIP with JNK1 at ~60–80% complex, titrated with unlabeled competitor; 20 mM Tris pH 8.0, 100 mM NaCl, 0.05% Brij35P, 2 mM TCEP; 384-well plates.
Assay [2] concerns the target pp-p38 (double-phosphorylated, activated p38α) (human) (UniProt Q16539). Briefly: competition in an in vitro kinase assay; 2 nM pp-p38, 2 µM MBP-ATF2 substrate, 3-fold dilution series of peptide from 1 mM; phospho-ATF2 dot blot; Ki = IC50/(1 + S/KM), KM 17.3 µM.
Assay [3] addresses CF-evJIP (carboxyfluorescein-labeled reporter docking peptide). Briefly: fluorescence polarisation; direct titration: 50 nM CF-evJIP, JNK1 concentration increased; 20 mM Tris pH 8.0, 100 mM NaCl, 0.05% Brij35P, 2 mM TCEP; 384-well plates. (In general: Polarisation of emitted light reports the rotation of a fluorescent probe.)

By pKi is commonly meant the Ki on a negative log10 scale, so that one unit is a factor of ten. As a reminder, the pKd is the negative decadic logarithm of the Kd, by convention in mol/L. Read a low pKd as a high Kd.

pKd, pKi: −log10 of the molar value.

“ATF2(19–100) Q34R/H47R (mutant construct of the FP assay of Fig. 2b) (from UniProt P15336-1 19-100) (domain or fragment)” returned a fold stronger binding than the wild type in assay [1] of 100 fold.
On to “SPFENEF peptide (ATF2 83–102) S90N (from UniProt P15336-1 83-102)”, for which the pKi in assay [2] is 5.12.
Still for that read-out and setting: the result for “SPFENEF peptide (ATF2 83–102) phospho-S90” reads 3.09; that for SPFENEF peptide (ATF2 83–102), WT, 4.47.
Consider “JNK1-dc20 (JNK1 where the C-terminal 20 residues are truncated) (from UniProt P45983 1-364) (enzyme)”, for which, in assay [3], the negative logarithm of the Kd (pKd) was 6.33.
For “MBP-c-Jun(1–78) K35E (domain or fragment)”, in assay [1], the fold decrease in binding against the wild type amounted to 10 fold.
